Columns and labels:
[1] = Chronic endotoxemia model (LPS 20 mg/kg i.p.) in mice; type: in vivo, Male FVB mice
Description: (§1) TNF-α in conditioned medium or mouse serum was measured by an enzyme-linked immunosorbent assay (ELISA) (R&D Systems, Minneapolis, Minn.). Accumulation of nitrite in the medium or mouse serum was determined by a colorimetric assay using Griess reagent (Sigma-Aldrich). Blood urea nitrogen (BUN) and creatinine were measured with a Roche D&P modular (Roche Diagnostic Systems, Branchburg, N.J.). Assays were performed according to the manufacturer's protocol.
Male FVB mice (8-10 weeks old) were used to model sepsis in vivo. The Institutional Animal Care and Use Committee of the National Cheng Kung University approved procedures. In the chronic endotoxemia model, various concentrations of rTMD1 or rTMD proteins in equi-molar amounts were administrated by tail intravenous (i.v.) injection and LPS (20 mg/kg) or K. pneumoniae (5×10^2 CFU/mouse, BCRC) was administrated by intraperitoneal (i.p.) injection. After 6 or 12 hours, mice were sacrificed by pentobarbital anesthesia (50 mg/kg; i.p.). Sera were collected and assayed for TNF-α, NO, BUN, and creatinine, and lung and kidney tissues were removed, fixed with formalin, and embedded in paraffin for histochemical examination. In the lethal sepsis model, rTMD1 (2 mg/kg, equals 87.3 nmole/kg) was i.v.-administrated at 0, 6, 12, and 24 hours after i.p. administration of LPS (40 mg/kg). The half-life of rTMD1 in the circulation was determined by i.v. injection of rTMD1 (10 mg/kg, equals 436.64 nmole/kg) and serum samples were collected at various time intervals. The levels of rTMD1 in the collected sera were determined by a sandwich ELISA which employed anti-c-Myc monoclonal antibody and TM-H300 as capture and detection antibodies (both from Santa Cruz Biotechnology), respectively. For the lethal bacteremia model, rTMD1 (10 mg/kg) was administrated prior to i.p. injection of K. pneumoniae (5×10^3 CFU/mouse). Mortality was monitored every 6-12 hours until all mice in either experimental group died. Experimental procedure of determining LPS half-life is as following. LPS (20 mg/kg) was i.p.-administrated to male FVB mice without or with rTMD1 (10 mg/kg; i.v.). Serum samples were collected at various time intervals and the amount of LPS was determined by Limulus amebocyte lysate test (Associates of Cape Cod, E. Falmouth, Mass.). A further experiment was performed to determine whether rTMD1 affects bacterial clearance. K. pneumoniae (5×10^2 CFU/mouse) was i.p.-administrated to male FVB mice without or with rTMD1 (10 mg/kg; i.v.), and blood samples were collected at various time intervals. Outgrowth of K. pneumoniae was quantified by plating serial dilutions of blood samples on blood agar plates and enumerating colonies after overnight incubation at 37° C.

K. pneumoniae [2] = assay: K. pneumoniae clearance in circulation (viable CFU counts in blood); type: in vivo, male FVB mice
Description: (§2) Male FVB mice (8-10 weeks old) were used to model sepsis in vivo. The Institutional Animal Care and Use Committee of the National Cheng Kung University approved procedures. In the chronic endotoxemia model, various concentrations of rTMD1 or rTMD proteins in equi-molar amounts were administrated by tail intravenous (i.v.) injection and LPS (20 mg/kg) or K. pneumoniae (5×10^2 CFU/mouse, BCRC) was administrated by intraperitoneal (i.p.) injection. After 6 or 12 hours, mice were sacrificed by pentobarbital anesthesia (50 mg/kg; i.p.). […] The half-life of rTMD1 in the circulation was determined by i.v. injection of rTMD1 (10 mg/kg, equals 436.64 nmole/kg) and serum samples were collected at various time intervals. The levels of rTMD1 in the collected sera were determined by a sandwich ELISA which employed anti-c-Myc monoclonal antibody and TM-H300 as capture and detection antibodies (both from Santa Cruz Biotechnology), respectively. […] Mortality was monitored every 6-12 hours until all mice in either experimental group died. […] Serum samples were collected at various time intervals and the amount of LPS was determined by Limulus amebocyte lysate test (Associates of Cape Cod, E. Falmouth, Mass.). […] Outgrowth of K. pneumoniae was quantified by plating serial dilutions of blood samples on blood agar plates and enumerating colonies after overnight incubation at 37° C.

K. pneumoniae [3] = assay: Lethal bacteremia model (K. pneumoniae 5×10^3 CFU/mouse), survival; type: in vivo, Male FVB mice; settings: single i.v. dose 10 mg/kg; K. pneumoniae 5×10^3 CFU
Description: as §2

K. pneumoniae [4] = assay: Bacterial agglutination, FITC-labeled K. pneumoniae; settings: 20 μg/mL protein, 5 mM CaCl2
Description: K. pneumoniae and E. coli DH5α (BCRC) were washed twice in 0.1 M sodium bicarbonate buffer (pH 9.6) and incubated with 0.1 mg/mL fluorescein isothiocyanate (FITC) at 37° C. in the dark. Each of 20 μg/mL of rTMD1, non-tagged rTMD1, mammalian rTMD1, and recombinant TM domains 2 and 3 (rTMD23) was co-incubated with FITC-labeled bacteria (1×10^5CFU/mL) in buffer (20 mM Tris, pH 7.4, 0.15 M NaCl, 5 mM CaCl2, 1 mg/mL BSA) with or without 0.2 M mannose or 5 mM EDTA. Samples were individually placed on a glass slide and fluorescently-labeled bacteria were observed microscopically to evaluate agglutination.

RAW 264.7 cells = assay: LPS-induced TNF-α production in RAW 264.7 cells (ELISA); type: cell-based, murine
Description: Human leukemia monocytic THP-1 cells and murine macrophage cell line RAW 264.7 were obtained from the American Type Culture Collection. THP-1 cells were grown in suspension in RPMI-1640 supplemented with 10 mM HEPES, 1 mM sodium pyruvate, 0.1% β-mercaptoethanol, 100 U/ml penicillin, 100 µg/ml streptomycin, and 10% fetal bovine serum (FBS). RAW 264.7 cells were grown as an adhered layer in Dulbecco's modified Eagle's medium with 4 mM L-glutamine adjusted to contain 1.5 g/l sodium bicarbonate and 4.5 g/l glucose, 100 U/ml penicillin, […] streptomycin, and 10% FBS under a humidified 5% CO2 atmosphere at 37° C. For differentiation, THP-1 cells were plated in medium containing 10 nM PMA and allowed to adhere for 18 h.
as §1

[5] = 12 hours after LPS, compared with LPS-treated mice
[6] = rTMD1 1-5 mg/kg i.v., 6 hours after LPS 20 mg/kg i.p.

B1: rTMD1: recombinant human thrombomodulin N-terminal lectin-like domain (residues Ala1-Ala155) with 6×His tag and c-Myc epitope, Pichia pastoris expressed (protein)
chain: EFAPAEPQPGGSQCVEHDCFALYPGPATFLNASQICDGLRGHLMTVRSSVAADVISLLLNGDGGVGRRRLWIGLQLPPGCGDPKRLGPLRGFQWVTGDNNTSYSRWARLDLNGAPLCGPLCVAVSAAEATVPSEPIWEEQQCEVKADGFLCEFHFPAYLEDDDDKIEQKLISEEDLNSAVDHHHHHH
modifications: left off: small tags and cut ends
[1]; 6 hours after LPS administration (FIG. 2C-D)
  pulmonary accumulation of PMNs / LPS-induced inflammatory responses: significantly inhibited
[1]; [5]
  BUN level: markedly reduced
  serum creatinine level: markedly reduced
[1]; kidney, 12 hours after LPS 20 mg/kg (FIG. 2E)
  extent of glomerulonephritis: significantly reduced
[1]; [6]
  NO levels in mice: significantly decreasing levels
  TNF-α levels in mice: significantly decreasing levels
K. pneumoniae [2]; 12, 24, 36 hours after infection, rTMD1 given up to 30 or 60 minutes after infection
  K. pneumoniae clearance in circulation, post-treatment: enhance
K. pneumoniae [2]; 12, 24, and 36 hours after injection, rTMD1 10 mg/kg i.v., 5×10^2 CFU
  K. pneumoniae clearance in circulation: significantly enhanced
K. pneumoniae [3]
  mice surviving more than 24 hours: 50%
K. pneumoniae [4]
  agglutination of K. pneumoniae: induced marked agglutination
RAW 264.7 cells; pre-incubated with LPS, 6 hours incubation (FIG. 1A)
  TNF-α production in RAW 264.7 cells stimulated with LPS: dose-dependently inhibited
RAW 264.7 cells; various concentrations of LPS and rTMD1 (FIG. 1C)
  LPS-induced TNF-α production: dose-dependently inhibited
